According to patent publication US20260232769A1 (WUXI BIOLOGICS IRELAND, published 2026):
Changes are numbered by the printed parent chain.

T1: IL-2Rα/β/γc complex (high affinity receptor) on human activated CD8+ T cells (human, UniProt P01589 22-272; P14784 27-551; P31785 23-369)
T1 sequence (looked up) 1: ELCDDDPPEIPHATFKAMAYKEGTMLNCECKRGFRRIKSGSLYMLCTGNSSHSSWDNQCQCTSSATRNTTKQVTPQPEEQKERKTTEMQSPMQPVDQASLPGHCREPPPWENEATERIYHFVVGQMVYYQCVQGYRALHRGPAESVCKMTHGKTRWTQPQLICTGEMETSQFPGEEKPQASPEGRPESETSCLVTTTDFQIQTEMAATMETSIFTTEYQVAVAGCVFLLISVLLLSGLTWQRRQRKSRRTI
T1 sequence (looked up) 2: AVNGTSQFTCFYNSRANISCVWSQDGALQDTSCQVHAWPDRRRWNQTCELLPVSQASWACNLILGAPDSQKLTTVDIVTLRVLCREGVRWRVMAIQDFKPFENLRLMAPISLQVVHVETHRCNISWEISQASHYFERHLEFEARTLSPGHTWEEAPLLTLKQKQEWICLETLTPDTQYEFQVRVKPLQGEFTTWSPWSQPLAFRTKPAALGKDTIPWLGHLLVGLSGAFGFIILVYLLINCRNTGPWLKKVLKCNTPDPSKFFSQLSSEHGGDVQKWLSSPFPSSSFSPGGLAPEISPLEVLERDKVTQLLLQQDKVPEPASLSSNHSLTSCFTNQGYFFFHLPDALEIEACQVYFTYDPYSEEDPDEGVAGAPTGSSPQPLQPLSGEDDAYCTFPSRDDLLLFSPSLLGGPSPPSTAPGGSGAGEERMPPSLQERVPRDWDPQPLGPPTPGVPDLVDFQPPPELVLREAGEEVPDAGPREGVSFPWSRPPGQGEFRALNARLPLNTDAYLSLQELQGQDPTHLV
T1 sequence (looked up) 3: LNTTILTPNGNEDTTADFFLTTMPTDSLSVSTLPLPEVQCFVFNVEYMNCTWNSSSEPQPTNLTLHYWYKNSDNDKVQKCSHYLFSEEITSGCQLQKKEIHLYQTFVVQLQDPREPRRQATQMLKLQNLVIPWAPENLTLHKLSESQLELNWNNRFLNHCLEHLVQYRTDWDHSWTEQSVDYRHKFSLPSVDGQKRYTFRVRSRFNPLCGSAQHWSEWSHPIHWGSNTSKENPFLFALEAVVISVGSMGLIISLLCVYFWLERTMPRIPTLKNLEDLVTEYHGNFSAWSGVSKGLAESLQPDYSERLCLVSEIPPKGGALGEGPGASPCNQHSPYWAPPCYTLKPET

T2: IL-2Rα (CD25) on human activated CD8+ T cells (human, UniProt P01589 22-272)
T2 sequence (looked up): T1 sequence (looked up) 1

T3: IL-2Rβ/γc complex (intermediate affinity receptor) on primary human CD8+ T cells (human, UniProt P14784 27-551; P31785 23-369)
T3 sequence (looked up) 1: T1 sequence (looked up) 2
T3 sequence (looked up) 2: T1 sequence (looked up) 3

B1: W3XX115-T3U0.E44-1.uIgG4V322 (Fc fusion)
chain: APTSSSTKKTQLQLEHLLLDLQMILNGINNYKNPKLTRMLTVKFAMPKKATELKHLQCLEEELKPLEEVLNGAQSKNFHLRPRDLISNINVIVLELKGSETTFMCEYADETATIVEFLNRWITFCQSIISTLTESKYGPPCPPCPAPEAAGGPSVFLFPPKPKDTLMISRTPEVTCVVVDVSQEDPEVQFNWYVDGVEVHNAKTKPREEQFNSTYRVVSVLTVLHQDWLNGKEYKCKVSNKGLPSSIEKTISKAKGQPREPQVYTLPPCQEEMTKNQVSLWCLVKGFYPSDIAVEWESNGQPENNYKTTPPVLDSDGSFFLYSRLTVDKSRWQEGNVFSCSVMHEALHNHYTQKSLSLSLG
heavy: EIQLQQSGPELVKPGASVKVSCKASGYSFTDYNMYWVKQSHGESLEWIGYIDPYNGGTRYNQKFKGKATLTVDKSSSTAFMHLNSLTSEDSAVYYCARNGHWDGAWFAYWGQGTLVTVSAASTKGPSVFPLAPCSRSTSESTAALGCLVKDYFPEPVTVSWNSGALTSGVHTFPAVLQSSGLYSLSSVVTVPSSSLGTKTYTCNVDHKPSNTKVDKRVESKYGPPCPPCPAPEAAGGPSVFLFPPKPKDTLMISRTPEVTCVVVDVSQEDPEVQFNWYVDGVEVHNAKTKPREEQFNSTYRVVSVLTVLHQDWLNGKEYKCKVSNKGLPSSIEKTISKAKGQPREPQVCTLPPSQEEMTKNQVSLSCAVKGFYPSDIAVEWESNGQPENNYKTTPPVLDSDGSFFLVSRLTVDKSRWQEGNVFSCSVMHEALHNHYTQKSLSLSLG
light: DIQMNQSPSSLSASLGDTITITCHASQNINVWLSWYQQKPGNIPKLLIYKASNLHTGVPSRFSGSRSGTGFTLTISSLQPEDIATYYCHQGQSYPFTFGSGTKLEIKRTVAAPSVFIFPPSDEQLKSGTASVVCLLNNFYPREAKVQWKVDNALQSGNSQESVTEQDSKDSTYSLSSTLTLSKADYEKHKVYACEVTHQGLSSPVTKSFNRGEC
B2: W3XX115-T2U3.E44-6.uIgG4V322 (Fc fusion)
chain: APTSSSTKKTQLQLEHLLLDLQMILNGINNYKNPKLTRMLTFKFYMPKKATELKHLQCLEEELKPLEEVLNLAQSKNFHLRPRDLISNINVIVLELKGSETTFMCEYADETATIVEFLNRWITFCQSIIESKYGPPCPPCPAPEAAGGPSVFLFPPKPKDTLMISRTPEVTCVVVDVSQEDPEVQFNWYVDGVEVHNAKTKPREEQFNSTYRVVSVLTVLHQDWLNGKEYKCKVSNKGLPSSIEKTISKAKGQPREPQVYTLPPCQEEMTKNQVSLWCLVKGFYPSDIAVEWESNGQPENNYKTTPPVLDSDGSFFLYSRLTVDKSRWQEGNVFSCSVMHEALHNHYTQKSLSLSLGK
heavy: QVQLVQSGAEVKKPGSSVKVSCKASGFTFTTYYISWVRQAPGQGLEYLGYINMGSGGTNYNEKFKGRVTITADKSTSTAYMELSSLRSEDTAVYYCAIIGYFDYWGQGTMVTVSSASTKGPSVFPLAPCSRSTSESTAALGCLVKDYFPEPVTVSWNSGALTSGVHTFPAVLQSSGLYSLSSVVTVPSSSLGTKTYTCNVDHKPSNTKVDKRVESKYGPPCPPCPAPEAAGGPSVFLFPPKPKDTLMISRTPEVTCVVVDVSQEDPEVQFNWYVDGVEVHNAKTKPREEQFNSTYRVVSVLTVLHQDWLNGKEYKCKVSNKGLPSSIEKTISKAKGQPREPQVCTLPPSQEEMTKNQVSLSCAVKGFYPSDIAVEWESNGQPENNYKTTPPVLDSDGSFFLVSRLTVDKSRWQEGNVFSCSVMHEALHNHYTQKSLSLSLGK
light: DVVMTQSPLSLPVTLGQPASISCRSSQSLLDSDGGTYLYWFQQRPGQSPRRLIYLVSTLGSGVPDRFSGSGSGTDFTLKISRVEAEDVGVYYCMQLTHWPYTFGQGTKLEIKRTVAAPSVFIFPPSDEQLKSGTASVVCLLNNFYPREAKVQWKVDNALQSGNSQESVTEQDSKDSTYSLSSTLTLSKADYEKHKVYACEVTHQGLSSPVTKSFNRGEC
B3: W3XX115-T2U3.E44-26.uIgG4V322 (Fc fusion)
chain: B2 chain with I129L
heavy: B2 heavy
light: B2 light

What was measured:
Assay in all cases: cell-based or functional assay
[1] = target: T1, IL-2Rα/β/γc complex (high affinity …)
[2] = target: T1, IL-2Rα/β/γc complex (high affinity …); remark: listed apart in the source
[3] = target: T2, IL-2Rα (CD25) on human activated CD8+ T …
[4] = target: PD-1 (on CHO-PD1 engineered cell line; on activated CD8+ T cells) (UniProt Q15116 25-288, limits assumed)
[5] = target: T3, IL-2Rβ/γc complex (intermediate …)

| Binder | Potency reduction, pSTAT5, human activated CD8+ T [1] | Potency reduction, pSTAT5, human activated CD8+ T (CD25 positive and PD-1 positive) [2] | pSTAT5 EC50, human activated CD8+ T (CD25 positive and PD-1 positive) [2] | PD-1+/PD-1- ratio (pSTAT5 potency, activated versus primary CD8+ T) [3] | PD-1+/PD-1- ratio (pSTAT5 potency, activated versus primary CD8+ T) [4] | Potency reduction, pSTAT5, human primary CD8+ T [5] | pSTAT5 EC50, human primary CD8+ T [5] |
| --- | --- | --- | --- | --- | --- | --- | --- |
| B1 | 12.4 fold | – | – | – | – | – | – |
| B2 | – | 2 fold | 55 pM | 3470 fold | 3470 fold | 13.4 fold | 191 nM |
| B3 | – | 3.2 fold | 88 pM | 4200 fold | 4200 fold | 25.9 fold | 370 nM |
